Source: patent US20260207732A1

Key:
[1] = target: control (H1 Bri18 wild type HA ectodomain-foldon) (Influenza A virus A/Brisbane/02/2018 (H1N1)); experiment: BLI (Octet) after 7D37C and trypsin; HA on Ni-NTA tips
[2] = target: control (H1 Bri18 wild type HA ectodomain-foldon) (Influenza A virus A/Brisbane/02/2018 (H1N1)); experiment: BLI (Octet), HA-foldon-His on Ni-NTA tips, IgG in solution

Substance	Octet response (nm) [1] [nm]	Octet response (nm) [2] [nm]
CR9114 monoclonal antibody (IgG)	0.693	0.826
FI6v3 monoclonal antibody (IgG)	0.697	0.856
